Laboratory results taken from the DeepSol protein solubility set.

Test: soluble on expression in E. coli; label from the status in PepcDB or PDB records

Sequence	soluble on expression in E. coli
MPLKGFEIIKSMITLLFLYQAIIRNFEEIVQFLGKIMGCGSSSPAEVAPAEIIEPSPSSDVPSDPKIPTSYRPSIISLQIPNEFGDDVSSDALSDRSDAQEENVDYLYATDVTLQWLLERIYDKFKKPIPEDPQWIIERLNRPSWDLDYATSSVVRVTFGWDDDELPRSVVLKTPVAKDQRDDEEGKYHYIMFKRECNVYEWTQKFPKLIAPKIIHIKKHSKEGSGVVVMEDVSEKGQEQDPVKGLMLEVVRDLLKQIAYLHSISLKHTSWSTLVADLPPSYYAHTIGSFDDTLTFFERQDVDHSRFVHIGKYFSDEYLHSTATETTELLDIPKVLVHGEPYASNVFTKMEGKEQRILSLIDWTEGHSGCFAEDVAKIICWNLNAKERVDNTSSLLEGYHFHLARYYDGDCPFTVDIIQRAYEVFVPFAMVSLCGKVMSVKNKTEKEPLIERAKSLIQQVYAMERLNES	not soluble
MLESVVAYGIIAGARAITGLRSLWLGTTPIPKQRIYYANHSSHGDFVLLWASLPPEVRRRTRPVAGADYWNKAGLRSYVINKVFNGVLVDRQRSEANANPLEPLDRALDGGDSLIIFPEGTRNLDDEVKLLPFKSGIYHLSLAHPDVELVPVWLANLNRVMPKGRMLPLPLLCTLSFGKPLVATAEEGKEAFLERARMALLDLAPEEEA	not soluble
MKSHQFSTALCQNTTESNGQPLRFPSPAKLNLFLYINGKFPNGYHELQTLFQFLDFGDWLDISIREQDNQIVLTPEIPNLKTENNLIYRAAKLLQEKANIQLGANIHLDKILPMGGGVGGGSSNAATALVSLNYLWQANLSIDELAKLGLTLGADVPIFVHGHAAFAEGVGEKITYCEPAEKWFVILKPDDSISTAVIFQDPNLPRNTPKKSLAQLLSEPYKNDCEKVVINHYSNVEKALNWLLQYAPARLTGTGACVFAEFDHEAEAQAVFRQKPEAFFGFVAKGLNVSPLHAMLKQLSSTHTHRQSKPEVLLEHHHHHH	soluble
LVPRGSHMTNDTSGVLTIATTHTQARYSLPEVIKAFRELFPEVRLELIQGTPQEIATLLQNGEADIGIASERLSNDPQLVAFPWFRWHHSLLVPHDHPLTQISPLTLESIAKWPLITYRQGITGRSRIDDAFARKGLLADIVLSAQDSDVIKTYVALGLGIGLVAEQSSGEQEEENLIRLDTRHLFDANTVWLGLKRGQLQRNYVWRFLELCNAGLSVEDIKRQVMES	soluble
MAVTGQVKWFNNEKGFGFIEVPGENDVFVHFSAIETDGFKSLEEGQKVSFEIEEGNRGPQAKNVIKL	not soluble
MKKIATATIATAGFATIAIASGNQAHASEQDNYGYNPNDPTSYSYTYTIDAQGNYHYTWKGNWHPSQLNQDNGYYSYYYYNGYNNYNYNNYNNGYSYNNYSRYNNYSNNNQSYNYNNYNSYNTNSYRTGGLGASYSTSSNNVQVTTTMAPSSNGRSISSGYTSGRNLYTSGQCTYYVFDRVGGKIGSTWGNASNWANAAARAGYTVNNTPKAGAIMQTTQGAYGHVAYVESVNSNGSVRVSEMNYGYGPGVVTSRTISASQAAGYNFIHLEHHHHHH	not soluble
MSQVFKDFDLSSVWKTNSWADENYKEAPFTPEILAAVESELGYKLPQSFIELMAVQNGGIFVKNCFPTTQRNSWAENHVQICEVSGIGFEKEGSLCGAMGQKLWLEEWEYPPIGVYFANDPSGGHAMFALDYRACGKDGEPKVVFVEQESDFEIVELAPDFETFIRSLRHEDEFIDEEI	not soluble
MAHHHHHHMSDLSTAHASQGYRFDPSRMNGCLHDTIIFKRLPSRLRHSTGSRTRSLRVNRPAVE	soluble
MALDITDESEIYNLDSLVSYSQGGCKAEHDWRIGTEHEKFPFYRGDFRPVPYEGSRGIRALLEGMQKALGWEPILDEGNIIGLVGSVGQGAISLEPGGQFELSGALLKTIGDTYCEVIEHLALLKKISEPLGIGFLGIGASPKWTLTETPRMPKSRYRIMANYMPKVGHSGLDMMYRTSTVQVNLDFSSETDMRRKMQVSMKLQSIATALFASSPFTEGRPNGFLSWRSEIWCDTDNQRTGVLPFIFSERFGFADYVEWALDVPMYFVVRDGRYYDCTHITFRQFMNGALRGQVANATPNMGDWINHLSTLFPEVRLKRFLEMRGADCGSLKRICALSAFWVGILYDSEALNEAEALTKDWCFEEVLDMRKRVPKEGLKTPFRQTIILEIARQAVAISHKGLKNRRQYASNGLDETSFLAPLEEVIAMGQTDADKFLSLYHSIWDKSVEPVFLECVY	not soluble
MKKPELTATSVEKFLIEKFDSVSDLMQLSEGEESRAFSFDVGGRGYVLRVNSCADGFYKDRYVYRHFASAALPIPEVLDIGEFSESLTYCISRRAQGVTLQDLPETELPAVLQPVAEAMDAIAAADLSQTSGFGPFGPQGIGQYTTWRDFICAIADPHVYHWQTVMDDTVSASVAQALDELMLWAEDCPEVRHLVHADFGSNNVLTDNGRITAVIDWSEAMFGDSQYEVANIFFWRPWLACMEQQTRYFERRHPELAGSPRLRAYMLRIGLDQLYQSLVDGNFDDAAWAQGRCDAIVRSGAGTVGRTQIARRSAAVWTDGCVEVLADSGNRRPSTRPRAKE	soluble
AHHHHHHGSGRFKKVPSSLCPMKKPGDVLREILQEKGIKSVGTLSRKWPSGRDIYQELALLLLEGDGAIVELREETAESWDLNGKKVGPSKYAYVRPCFVEKFKVIVDGSEIAKRLPDYPWIIVDLTFWNRHIPKEKDKVALQLRETYAVVRRMYYPRRFAITWVNEEFKKKNKVPLEKVVSYEGSTADFLREKGINRVVLLDPNAEEVLSREDLQERAFIIGGIVDMKGDKKGTTAKIGEVLEKEGIDVLRRKIVLRGDIVGVPDRINHIAEILLRMLYGEDMEKAILAVQAPTHARWRLRKEIPKRKIRYLIDGKLYLVVEKELYDELKQWLNIRWEDFVKVLRETGMVALERRRIHHLNKISVFRFDKSGGKRVILLKRAALLCYNC	soluble
MGSDKIHHHHHHMYLKVFKEDVIDGLQKAANIIPAKTGAAYLRSIWLKAEAGMVHVLSTDSNIEFRGSYKAEVTEEGLAGVQGRAFVDLIRKLPAGEITLHLDPKTGTLGIEQGRRKYTLPTNDTAWFQNFSDYPESGSVFWSGDFLQELIDKLSFCISDEDTMEAIACMSMKPRQDNAIEACGLNGHQFAMQRFLNDDIHALLPAEGILVQKKYLMELKKWLGADEIELNIDNKRLFFRTGDKRETFSLPLSYYQYPDYTSFVSKLSTPDAGALEVNRKDMMAALDRVLIFNTDNNRCTYFDLEAGEVSLSSQGQEVGSASESLEGTYDGSLKRIAFPTRNLIEIMNHYQSDSMRFTLTGTEGPCGLTGENDPDYLVIVMPMKIVEETYYSEEEV	not soluble
MSDITLDIADFHWVTQILDTMDSGLIVLDPEYNVCVWNSFMQSYSGVLSQDILGQCLFDHFDELPRTWLETKLKASADLETRSFSSWENRPYLFKFNNFSPVSNSCDFMFQDIVITPLRSLSGEVSHIAIQVNDVSETARNRIHLRETNQHLSEISRKDGL	not soluble
IFPFKEPPMALEKHGTCLCGDTRLTVTVDNTHISACHCSMCRKWTGGPLLVVHCSKPPLIEGRAPSVYDSSDWAQRAFCGRCGTHLYYRLKANDFHAVPVGLLDGDQAWDFDLQIFVEEKPAWYCFANQTKELSGQE	not soluble
MKEDTLLRKLVADGEGVGDDRKVQQIATFFRESRKEDAKTSVPEAVKVTKAIEEMYKKMEVAKNELADAKIVKRNRQEYRKLVNVLEEVPSRAETTRKLGEVKDDLERQHERQKVLEAKLMDRRNHLQAFMIILSNFQRFCAEDDDDDAEVMSNPGEDDDAASVTEKQQEDDVRK	not soluble
MGYVEIIEQPKQRGMRFRYKCEGRSAGSIPGERSTDTTKTHPTIKINGYTGPGTVRISLVTKDPPHRPHPHELVGKDCRDGFYEAELCPDRCIHSFQNLGIQCVKKRDLEQAISQRIQTNNNPFQVPIEEQRGDYDLNAVRLCFQVTVRDPSGRPLRLPPVLSHPIFDNRAPNTAELKICRVNRNSGSCLGGDEIFLLCDKVQKEDIEVYFTGPGWEARGSFSQADVHRQVAIVFRTPPYADPSLQAPVRVSMQLRRPSDRELSEPMEFQYLPDGSLSSGSSLSSPSAGAAPRVLFGEWLLGEISSGCYEGLQWLDEARTCFRVPWKHFARKDLSEADARIFKAWAVARGRWPPSSRGGGPPPEAETAERAGWKTNFRCALRSTRRFVMLRDNSGDPADQHKVYALSGSLSSDSSLSSPSALSPKPRILPWLVSQLDLGQLEGVAWVNKSRTRFRIPWKHGLRQDAQQEDFGIFQAWAEATGAYVPGRDKPDLPTWKRNFRSALNRKEGLRLAEDRSKDPHDPHKIYEFVNGLEHHHHHH	soluble
MSIRDERKQQSRQALLDAALQLSTGGRSFSSISLREVAREVGLVPTAFYRHFQDMDALGQELVDQVALHIKSLIHQLGQSYLQQVSTHPDSSIELFFQAINHSPLEWQFMIAERWGGSAAVRQAIAREIEDLIEDLATDLRKLPMFEHIQDSQDLKVLSTILINLSFTWAMTWLSLASQYQDAALSQHQQQFVENANTQIRLMFRGVANWG	not soluble
MSLEVIKHDGPGRLGVIRLEPPVQTPALAGVDFTLSPFNSFFYPKDYKEYDFNLAPAIPLSYYTPDEIIKKAVKRLWEVDYSKFNAFYFPALKRTKHYEELFKIIEENDFDAIYIGNSKSMIKDYRGFVFTMRELREKFPNAVLITDLEPFFYPLAVYLGIDAFDIRSLKIYSYEGLGFTQFSPIIWDEPKEDPVEYAKKIIRLIRIAIHEGKLRYLVENFLPTSMNAGILRIADRENIEYLEKYTPVDDKTVVFISDYSMTRPEVYRWAKRVRERFEPPKDIELLLILPCSAKKPYSRSRSHTLYRSAVKEALGEKMHRVHELIVTSPYGVVPREWEWIAKYDIVVTGHWSEREVRLAGELLADVLEKYPDIPIIAHVEGGYREAVKLAMELSGRDVIFTAKGNSTTSRESLANLTKTLKEFDVRDVDKEYRRYRFYENIRKIFDFYFGLNAGYAVLPERAQVVGSKMLRLIVDNQQTGTFQEGVISVTPWGMQRIYDELHSYWVEIDFDVRGDIFAAGVGSADEKIRPNDWVGVVRDGKVVAVGRAVLSGEEMVKAKRGVAVKVKKKAKEGHHHHHH	soluble
MGSDKIHHHHHHVHHRHHKKGIIHRDADEMIEFPKRSNDRLGETMIHGQIICHGTPLDYVRPYLSSKKYPRVIINICVSDDGGWYRLTTGNMFDLEGSVTFTVRHQCLMDKLPPMIQCAVPYYTTEVTIDLSSNTTYIGRSFELSKMEAYSSADCLY	not soluble
DAETFHKDELDLAYDRISQQFDTDMGGMNKAPKFPMPSIYLYLLRDYALTGRQGSLQHVELTLDKMAMGGIYDTIGGGFARYSVDGAWFAPHFEKMLYDNGQLLSLYSEAYTVTKKPLYKEVIEETYTWLKREMLSPEGGFYSALDADSEGVEGKFYCWQYEELAQLIQEDFALFCAYYAITENGNWEHGMNILYKRMSDEAFAAAHSISAEALRESVSRWKNILFSERDPREHPGLDDKILASWNGIMLKGLCDAYRILGDAAILNTALMNAEFILTKLYDGKTLFHSYKNKKATIPGFLEDYTHVIDGYLALYEVSLDEQWLRQAITLVNHVIDHFYDDDEGLFFYTSRTSEKLIARKKEIFD	not soluble
MGSDKIHHHHHHMTGKLPKACVIGAGCSGFTTIKRLKDYGIPYDCFEMSDEVGGNWYYKNPNGLSACYESLHIDTSKWRLAFEDFPVPKDWPDFPHHAQLFQYFKDYVDHFGLRPTITFNTKVESAKRTADGLWAVTLSGGETQFYDVLFVCNGHHWDPRVPEYPGEFDGPAFHAHAYCDPFDPVDMRGKNVVVVGMGNSAMDIASELSQRPIAKNLWVSARRGVWVFPKYLNGKPADKTALPAWMPRKLGVALSRSVLKKTIGRMEDYGLPKPDHEPLEAHPSVSGEFLTRAGCGDIKFKPAIKALEGKRVRFTDDSVEDVDAIVFATGYKISFPFFDDPALLPDADHRLPLFKRMMKPEVPNLFYMGLAQPLPTLVNFAEQQAKLAAAYLAGQYALPPPAEMARITAKDEHRHTGHFYDSARHTIQVDFNVYCADLKKEIAKGEARARNAGGKLPVAARAEGQALAAE	not soluble
